Assay [1] concerns Monoclonal antibody 3E7. The settings on record: Meo et al., Herz et al., Gramsch et al.; cited from earlier work.
Assay [2] addresses 3E7 antibody. Briefly: Solution radioimmunoassay, inhibition of [125I]b-endorphin binding to mAb 3E7. The conditions noted are these: for IC50: geometric mean, 30 pM [125I]b-endorphin, 20% tracer bound, 18 hr. incubation, 0.25 μg/ml 3E7; for Affinity Relative to YGGFL (SEQ ID NO: 125): relative to YGGFL = 1. The method, then: The peptides were synthesized according to well known protocols, as described in, for example, Merrifield, Science 232:341-347 (1986), incorporated by reference herein. A solution radioimmunoassay was used to estimate the binding affinities of peptides for mAb 3E7. Solution radioimmunoassay using [^125I]b-endorphin (20,000 cpm) and purified 3E7 antibody (0.25 μg/ml) was conducted as described by Meo et al., supra, with the exception that the final volume was 150 μl. Antibody-bound and free [^125I]b-endorphin were separated by addition of activated charcoal followed by centrifugation, as described in Ghazarassian et al., Life Sciences 27:75-86 (1980). Antibody-bound [^125I]b-endorphin in the supernatant was measured in a gamma counter. […] J. Physiol. 235:E97-E102 (1978).

The target of assay [3] is Monoclonal antibody 3E7. Put plainly: solution RIA, displacement of [125I]b-endorphin from mAb 3E7. For orientation: Displacement assays read how much labelled ligand stays bound in the presence of the test substance.
Assay [4] deals with Monoclonal antibody 3E7. Briefly: solution RIA, 30 pM tracer, 18 hr incubation.
Assay [5] addresses Monoclonal antibody 3E7. Briefly: binding experiments with mAb 3E7 and [3H]YGGFL, room temperature.

Where no end group is shown, it is not given here.

As to “YGGFM: met-enkephalin, natural opioid peptide”, the “binding to antibody 3E7” value in assay [1] is “binds tightly”.

As usually defined, the IC50 is the concentration that inhibits the measured activity by half. The low end stands for inhibition by little substance, the high end for a need for much substance. Take YGGWAG [YGGWAG]: in assay [2], the IC50 is 7800 nM and the “Affinity Relative to YGGFL (SEQ ID NO: 125)” value came out at 0.00091.

With YGPFWS [YGPFWS], in assay [2], the IC50 worked out at 1900 nM and the “Affinity Relative to YGGFL (SEQ ID NO: 125)” value was found to be 0.0037.

On to GFL (peptide), for which, in assay [3], the Affinity Relative to YGGFL is < 7.1e-06.

With YGFWGM [YGFWGM], in assay [2], the IC50 is 350 nM and the “Affinity Relative to YGGFL (SEQ ID NO: 125)” value turned out to be 0.020.

For “YGGF [Tyr-Gly-Gly-Phe, reference compound]”, in assay [2], the concentration for half-maximal inhibition (IC50) is 190 nM and the “Affinity Relative to YGGFL (SEQ ID NO: 125)” value is listed as 0.037.

Turning to YGGFPD [YGGFPD], in assay [2], the IC50 was found to be 2300 nM and the “Affinity Relative to YGGFL (SEQ ID NO: 125)” value came to 0.0031.

Regarding YGG (peptide), the Affinity Relative to YGGFL in assay [3] is < 7.1e-06.

Turning to “[125I-tyr28]b-endorphin (from UniProt P01189 237-267) (peptide)”, the tracer bound in assay [4] came to 20%.

For the molecule “YGGFL [Tyr-Gly-Gly-Phe-Leu, reference compound]”, in assay [2], the IC50 was 7.1 nM and the “Affinity Relative to YGGFL (SEQ ID NO: 125)” value is reported as 1. Also, the “binding to antibody 3E7” value in assay [1] is recorded as “binds tightly”.

For the molecule YGNWTY [YGNWTY], in assay [2], the IC50 was determined as 7800 nM and the “Affinity Relative to YGGFL (SEQ ID NO: 125)” value came out at 0.00091.

For the molecule YAGFAQ [YAGFAQ], in assay [2], the IC50 was 8300 nM and the “Affinity Relative to YGGFL (SEQ ID NO: 125)” value worked out at 0.00086.

Regarding GGF (peptide), the Affinity Relative to YGGFL in assay [3] is < 7.1e-06.

In assay [3], YAGFAQ had an Affinity Relative to YGGFL of 0.00086 and a half-inhibitory concentration (IC50) of 8300 nM.

In assay [3], YGFWGM came in with an Affinity Relative to YGGFL of 0.02 and a half-inhibitory concentration (IC50) of 350 nM.

In assay [3], YGNWTY had an Affinity Relative to YGGFL of 0.00091 and an IC50 of 7800 nM.

Regarding YGGFL, in assay [3], the Affinity Relative to YGGFL came to 1 and the IC50 turned out to be 7.1 nM. The dissociation t1/2 in assay [5] was found to be 45 s.

In assay [3], YGGFPD registered an Affinity Relative to YGGFL of 0.0031 and an IC50 of 2300 nM.

In assay [3], YGGWAG gave an Affinity Relative to YGGFL of 0.00091 and an IC50 of 7800 nM.

In assay [3], YGPFWS gave an Affinity Relative to YGGFL of 0.0037 and a 50% inhibitory concentration (IC50) of 1900 nM.

As to GGFL, in assay [3], the Affinity Relative to YGGFL was < 7.1e-06.

As for YGGF, in assay [3], the Affinity Relative to YGGFL was found to be 0.037 and the IC50 stood at 190 nM.
